In patent US11278600B2, “Human alpha-galactosidase variants” (Codexis, Inc., priority 2014, dated 2022):
Where a chain is given by its changes, count along the chain named.

B1: 247 (protein)
chain: LDNGLARTPTMGWLHWERFMCNLDCQEEPDSCISEKLFMEMAELMVSEGWKDAGYEYLCIDDCWMAPQRDSEGRLQADPQRFPHGIRQLANYVHSKGLKLGIYADVGNKTCAGFPGSFGYYDIDAQTFADWGVDLLKFDGCYCDSLENLADGYKHMSLALNRTGRSIVYSCEWPLYMWPFQKPNYTEIRQYCNHWRNFADIDDSWASIKSILDWTSFNQEKIVDVAGPGGWNDPDMLVIGNFGLSWDQQVTQMALWAIMAAPLFMSNDLRHISPQAKALLQDKDVIAINQDPLGKQGYQLRQGDNFEVWERPLSGLAWAVAVINRQEIGGPRSYTIAVASLGDGVACNPACFITQLLPVKRKLGFYEWTSRLKSHINPTGTVLLQLENTMQMSLKDLL
modifications: Synthetic Polypeptide sequence of Variant No. 247 of mature Human GLA
B2: 254 (protein)
chain: B1 chain with L100F, K221R, D247N, V322M, D343K, K373R
modifications: Synthetic Polypeptide sequence of Variant No. 254 of mature Human GLA
B3: 257 (protein)
chain: B1 chain with L100F, I208V, K221T, D247N, V322M, F365L, K373R, I376V
modifications: Synthetic Polypeptide sequence of Variant No. 257 of mature Human GLA
B4: 252 (protein)
chain: B1 chain with K96I, K221R, V322M, D343K, A350G, E367D, T369D, K373R
modifications: Synthetic Polypeptide sequence of Variant No. 252 of mature Human GLA
B5: 250 (protein)
chain: B1 chain with K96I, F217R, K221R, D247N, V322M, D343K, K373R
modifications: Synthetic Polypeptide sequence of Variant No. 250 of mature Human GLA
B6: 251 (protein)
chain: B1 chain with K96I, F217R, K221R, V322M, D343K, K373R
modifications: Synthetic Polypeptide sequence of Variant No. 251 of mature Human GLA
B7: 249 (protein)
chain: B1 chain with K221T, D247N, D343K
modifications: Synthetic Polypeptide sequence of Variant No. 249 of mature Human GLA
B8: 248 (protein)
chain: B1 chain with K221T, D247N, D343G
modifications: Synthetic Polypeptide sequence of Variant No. 248 of mature Human GLA
B9: 255 (protein)
chain: B1 chain with L100F, I208V, Q302K, V322I, F365L, K373R, I376V
modifications: Synthetic Polypeptide sequence of Variant No. 255 of mature Human GLA
B10: 256 (protein)
chain: B1 chain with L100F, I208V, Q302K, F365L, K373R, I376V
modifications: Synthetic Polypeptide sequence of Variant No. 256 of mature Human GLA
B11: 253 (protein)
chain: B1 chain with K96I, K221R, Q302K, L316D, V322M, A337P, D343K, E367D, T369D, K373R
modifications: Synthetic Polypeptide sequence of Variant No. 253 of mature Human GLA

test: HTP-analysis of yeast culture supernatants, no challenge (MUGal hydrolysis); assay type: biochemical; details: activity of the variant/activity of Rd2BB (SEQ ID NO: 10), yeast culture supernatant
In short: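 Activity read as 4-methylumbelliferyl α-D-galactopyranoside hydrolysis: fluorescence (355/448 nm) after sodium carbonate stop, following 30-180 min at 37° C with 2 mM MUGal stock at pH 4.6–4.8. Enzyme source is unchallenged culture supernatant of INVSc1 yeast expressing GLA variants, grown 66-84 h at 30° C.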

Molecule | Relative Activity of GLA Variants After No Challenge (NC)
B1 | +++ (+++ = >2.5 relative activity over Rd2BB (SEQ ID NO: 10))
B2 | + (+ = 0.5 to 1.5 relative activity over Rd2BB (SEQ ID NO: 10))
B3 | ++ (++ = 1.5 to 2.5 relative activity over Rd2BB (SEQ ID NO: 10))
B4 | +++ (+++ = >2.5 relative activity over Rd2BB (SEQ ID NO: 10))
B5 | + (+ = 0.5 to 1.5 relative activity over Rd2BB (SEQ ID NO: 10))
B6 | ++ (++ = 1.5 to 2.5 relative activity over Rd2BB (SEQ ID NO: 10))
B7 | ++ (++ = 1.5 to 2.5 relative activity over Rd2BB (SEQ ID NO: 10))
B8 | + (+ = 0.5 to 1.5 relative activity over Rd2BB (SEQ ID NO: 10))
B9 | +++ (+++ = >2.5 relative activity over Rd2BB (SEQ ID NO: 10))
B10 | ++ (++ = 1.5 to 2.5 relative activity over Rd2BB (SEQ ID NO: 10))
B11 | +++ (+++ = >2.5 relative activity over Rd2BB (SEQ ID NO: 10))

test: HTP-analysis of supernatants pretreated with acid (MUGal hydrolysis); assay type: biochemical; details: challenge at pH 4.2; activity of the variant/activity of Rd2BB (SEQ ID NO: 10); yeast culture supernatant
In short: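 Fluorescence of MUGal hydrolysis (Ex. 355 nm, Em. 448 nm) is read after sodium carbonate quench. The enzyme source is INVSc1 yeast culture supernatant, first exposed to pH 3.3-4.3 McIlvaine buffer at 37° C. for 1-3 h, then reacted at pH 4.8 for 30-180 minutes.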

Molecule | Relative Activity of GLA Variants After Challenge at pH 4.2
B1 | +++ (+++ = >2.5 relative activity over Rd2BB (SEQ ID NO: 10))
B2 | + (+ = 0.5 to 1.5 relative activity over Rd2BB (SEQ ID NO: 10))
B3 | ++ (++ = 1.5 to 2.5 relative activity over Rd2BB (SEQ ID NO: 10))
B4 | +++ (+++ = >2.5 relative activity over Rd2BB (SEQ ID NO: 10))
B5 | + (+ = 0.5 to 1.5 relative activity over Rd2BB (SEQ ID NO: 10))
B6 | + (+ = 0.5 to 1.5 relative activity over Rd2BB (SEQ ID NO: 10))
B7 | ++ (++ = 1.5 to 2.5 relative activity over Rd2BB (SEQ ID NO: 10))
B8 | + (+ = 0.5 to 1.5 relative activity over Rd2BB (SEQ ID NO: 10))
B9 | +++ (+++ = >2.5 relative activity over Rd2BB (SEQ ID NO: 10))
B10 | +++ (+++ = >2.5 relative activity over Rd2BB (SEQ ID NO: 10))
B11 | +++ (+++ = >2.5 relative activity over Rd2BB (SEQ ID NO: 10))

test: HTP-analysis of supernatants pretreated with base (MUGal hydrolysis); assay type: biochemical; details: challenge at pH 7.6; activity of the variant/activity of Rd2BB (SEQ ID NO: 10); yeast culture supernatant
In short: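 Fluorescence of released 4-MU (Ex 355 nm, Em 448 nm) after carbonate quench reports MUGal hydrolysis by GLA variants secreted from INVSc1 yeast. Before the acidic (pH 4.3-4.8) 30-180 min reaction at 37° C, supernatants had been pre-incubated at pH 7.0-9.7 for 1-18 h at 37° C.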

Molecule | Relative Activity of GLA Variants After Challenge at pH 7.6
B1 | +++ (+++ = >2.5 relative activity over Rd2BB (SEQ ID NO: 10))
B2 | + (+ = 0.5 to 1.5 relative activity over Rd2BB (SEQ ID NO: 10))
B3 | ++ (++ = 1.5 to 2.5 relative activity over Rd2BB (SEQ ID NO: 10))
B4 | +++ (+++ = >2.5 relative activity over Rd2BB (SEQ ID NO: 10))
B5 | + (+ = 0.5 to 1.5 relative activity over Rd2BB (SEQ ID NO: 10))
B6 | ++ (++ = 1.5 to 2.5 relative activity over Rd2BB (SEQ ID NO: 10))
B7 | +++ (+++ = >2.5 relative activity over Rd2BB (SEQ ID NO: 10))
B8 | + (+ = 0.5 to 1.5 relative activity over Rd2BB (SEQ ID NO: 10))
B9 | +++ (+++ = >2.5 relative activity over Rd2BB (SEQ ID NO: 10))
B10 | +++ (+++ = >2.5 relative activity over Rd2BB (SEQ ID NO: 10))
B11 | +++ (+++ = >2.5 relative activity over Rd2BB (SEQ ID NO: 10))

test: HTP-analysis of supernatants pretreated with bovine serum (MUGal hydrolysis); assay type: biochemical; details: activity of the variant/activity of Rd2BB (SEQ ID NO: 10), yeast culture supernatant
Protocol: Yeast (INVSc1) cells transformed with vectors expressing GLA and GLA variants using the lithium acetate method were selected on SD-Ura agar plates. After 72 h incubation at 30° C. colonies were placed into the wells of Axygen® 1.1 ml 96-well deep well plates filled with 200 μl/well SD-Ura broth (2 g/L SD-Ura, 6.8 g/L yeast nitrogen base without amino acids [Sigma Aldrich]), 3.06 g/L sodium dihydrogen phosphate, 0.804 g/L disodium hydrogen phosphate, pH 6.0 supplemented with 6% glucose. The cells were allowed to grow for 20-24 hours in a Kuhner shaker (250 rpm, 30° C., and 85% relative humidity). Overnight culture samples (20 μL) were transferred into Corning Costar® 96-well deep plates filled with 380 µL of SD-ura broth supplemented with 2% glucose. The plates were incubated for 66-84 h in a Kuhner shaker (250 rpm, 30° C., and 85% relative humidity). The cells were then pelleted (4000 rpm×20 min), and the supernatants isolated and stored at 4° C. prior to analysis.
GLA variants were challenged with bovine serum to simulate the conditions the variants encounter following infusion into a patient. First, 20 μL of yeast culture supernatant and 80 μL, of bovine serum were added to the wells of a 96-well round bottom plate. The plates were sealed and incubated at 37° C. for 1 h. For the assay, 50 μL of serum-challenged sample was mixed with 25 μL, of 1 M citrate buffer pH 4.3 and 25 μL, of 4 mM MUGal in McIlvaine buffer pH 4.8. The reactions were mixed briefly and incubated at 37° C. for 180 minutes, prior to quenching with 100 μL, of 1 M sodium carbonate. Hydrolysis was analyzed using a SpectraMax® M2 microplate reader monitoring fluorescence (Ex. 355 nm, Em. 448 nm).

Molecule | Relative Activity of GLA Variants After Challenge with Serum
B1 | +++ (+++ = >2.5 relative activity over Rd2BB (SEQ ID NO: 10))
B2 | + (+ = 0.5 to 1.5 relative activity over Rd2BB (SEQ ID NO: 10))
B3 | ++ (++ = 1.5 to 2.5 relative activity over Rd2BB (SEQ ID NO: 10))
B4 | +++ (+++ = >2.5 relative activity over Rd2BB (SEQ ID NO: 10))
B5 | + (+ = 0.5 to 1.5 relative activity over Rd2BB (SEQ ID NO: 10))
B6 | + (+ = 0.5 to 1.5 relative activity over Rd2BB (SEQ ID NO: 10))
B7 | ++ (++ = 1.5 to 2.5 relative activity over Rd2BB (SEQ ID NO: 10))
B8 | + (+ = 0.5 to 1.5 relative activity over Rd2BB (SEQ ID NO: 10))
B9 | ++ (++ = 1.5 to 2.5 relative activity over Rd2BB (SEQ ID NO: 10))
B10 | +++ (+++ = >2.5 relative activity over Rd2BB (SEQ ID NO: 10))
B11 | +++ (+++ = >2.5 relative activity over Rd2BB (SEQ ID NO: 10))
